This data set in a line: label from the status in PepcDB records.
For the sequence “MGSSHHHHHHSSGRENLYFQGHMAATAREDGASGQERGQRGCEHYDRGCLLKAPCCDKLYTCRLCHDNNEDHQLDRFKVKEVQCINCEKIQHAQQTCEECSTLFGEYYCDICHLFDKDKKQYHCENCGICRIGPKEDFFHCLKCNLCLAMNLQGRHKCI”, the protein production entry is “not failed”.

Take “MGSTRKGMLNVLIAAVLWGSSGVCAQYIMEQSQMSSQFLTMTRLIFAGLILLTLSFVHGDKIFSIINNHKDAISLLIFSVVGALTVQLTFLLTIEKSNAATATVLQFLSPTIIVAWFSLVRKSRPGILVFCAILTSLVGTFLLVTHGNPTSLSISPAALFWGIASAFAAAFYTTYPSTLIARYGTLPVVGWSMLIGGLILLPFYARQGTNFVVNGSLILAFFYLVVIGTSLTFSLYLKGAQLIGGPKASILSCAEPLSSALLSLLLLGITFTLPDWLGTLLILSSVILISMDSRRRARKINRPARHK”: the protein production entry was “failed”.

For “MGSVPMGHKRISFHIVQTTRSGDRSASRTSVEEASDQGPSPWTTADSAIFQLRWSCVWRRAVSTSANIEDGADAAFVASPPPFGAGVADLYQALLVPILFEPYALEMAIVAERSKPVSVLEVAAGTGALTRALRAKLDPAAEIVATDLSQAMIDVGAPSVTMSRTHWMHADAQDLPFAPLMFDLVVCQFGVMFFPDKPKAYHEAKRVLRSGGRLLFSTWDSLAANDFARCVDECLTGLFPSDPPDFLGRLPYSYFDPSLIKAEVSSAGFKAVSCERLELASIAATSQDVATAFCRGTPLSGEIEWRAPERMSEIVDEVAERVASRYGARPCGSMSALVVSGRAP”, the protein production result was “failed”.

Regarding “MGSVSNQQFAGGCAKAAEEAPEEAPEDAARAADEPQLLHGAGICKWFNVRMGFGFLSMTARAGVALDPPVDVFVHQSKLHMEGFRSLKEGEAVEFTFKKSAKGLESIRVTGPGGVFCIGSERRPKGKSMQKRRSKGDRCYNCGGLDHHAKECKLPPQPKKCHFCQSISHMVASCPLKAQQGPSAQGKPTYFREEEEEIHSPTLLPEAQN”, the protein production result is given as “failed”.

For the sequence “MGSVSTGNAGSGTVGTSTTSRADVMTFQPSSLPVSYVGETYNVQVGVTGGVGPYGYRLTAGTLPPGLKFAGGALSGTPTKAGSYSFAIQATDANLSTRVQEYTMNVDALPPLALKPTLPPGEIRGETRIPVTIQAPRAVRAARLSWDLGKDVQVTRVQPADAGSVVFWQQRGSVLTVDLGFRTVPRPDARIALITVKPAKAVTLKADALGYEARDGSGKMLVDKKRPGSEPVKPAEQPGDPKVDPKAADQKATDQKATDPKTVDPKTVTPADTVEGGPLPSPALPTPSLPPTLPPVTTPPANTPPVPTPTPPANQPAPAPAPQPAPAPQPTPPSGTGGALEHHHHHH”, the protein production entry is listed as “failed”.

With “MGTALVYHEDMTATRLLWDDPECEIECPERLTAALDGLRQRGLEERCLCLSACEASEEELGLVHSPEYIALVQKTQTLDKEELHALSKQYDAVYFHPDTFHCARLAAGAALQLVDAVLTGAVHNGLALVRPPGHHSQRAAANGFCVFNNVALAAKHAKQKYGLQRILIVDWDVHHGQGIQYIFNDDPSVLYFSWHRYEHGSFWPFLPESDADAVGQGQGQGFTVNLPWNQVGMGNADYLAAFLHVLLPLAFEFDPELVLVSAGFDSAIGDPEGQMQATPECFAHLTQLLQVLAGGRICAVLEGGYHLESLAQSVCMMVQTLLGDPTPPLLGLMVPCQSALESIQSVQTAQTPYWTSLQQNVAPVLSSSTHSPEERSLRLLGESPTCAVAEDSLSPLLDQLCLRPAPPICTAVASTVPGAALCLPPGVLHQEGSVLREETEAWARLHKSRFQDEDLATLGKILCLLDGIMDGQIRNAIATTTALATAATLDVLIQRCLARRAQRVLCVALGQLDRPLDLADDGRILWLNIRGKDAAIQSMFHFSTPLPQTTGGFLSLILGLVLPLAYGFQPDMVLMALGPAHGLQNAQAALLAAMLRSPVGGRILAVVEEESIRLLARSLAQALHGETPPSLGPFSKATPEEIQALMFLKARLEARWKLLQVAAPPP”, the protein production result was “failed”.

As to “MGTARTLTAAGGEPAFRGNDRLLLGIILGVLTFWLFAQTTLNIAPDMRRDLGTGESLMNIAVALTALFSGIFIVVMGGLADRVGRVRMVRLGFLASIAGSLLVGLAPAGGLAVAFLLAGRALQGLSGACIMPASLALVKAYWDGAERQRAISLWSIGSWGGSGVCSLFGGLVTQHLGWRWIFFASVLVAIAGLLLLRGTPESRAEGGAADYRFDLAGVLTFMVAMVALQVVVTQGNQLGWTSPASLGLVAATIVFGWLFLRIERRARSPFIDFGLFRSPTYTGATISNFLLNGVAGTLIVSLQLVQVGGGMSAQRAGVLTLGYAVAIIAFIRVGEKLLRRFGARRPMLWGCAITGASILLLAPSNVMLARYEVMAVIGYTLFGVGLAFYATPSTDAALSNLPASQAGAGSGLYKMASSLGAAFGVAISAAIFTALRAAPQSVSWLEGVITFQGRQDNLAVREAAIIALGFNELMVVVAIVSIVLTIPEGERRQGA”, the protein production result was “failed”.

“MGTLGRAIYTVGNWIRGTGQALDRVGSLLQGSHRIEEHLSRHRTLMNVFDKSPLVDKDVFVAPSASVIGDVQIGKGSSIWYGCVLRGDVNNISVGSGTNIQDNTLVHVAKTNISGKVLPTLIGDNVTVGHSAVIHGCTVEDDAFVGMGATLLDGVVVEKHAMVAAGSLVKQNTRIPSGEVWGGNPAKFMRKLTDEEIVYISQSAKNYINLAQIHASENSKSFEQIEVERALRKKYARKDEDYDSMLGITRETPPELILPDNVLPGGKPVAKVPSTQYF”: the protein production result is given as “failed”.

For the sequence “MGTSKYSPEFRADAVALYHASPGGTYASVAKDLGVNHETLRTWVRDAEQAGRPGAVEATAMDKENRQLRARVKELELEREILRRAAKYFAAETSWLEHHHHHH”, the protein production entry is listed as “not failed”.

As for “MGTSSDPIQDGSDEQQKRSEIYTYEAPWHIYAMNWSVRRDKKYRLAITSLLEQYPNRVEIVQLDESNGEIRSDPNLSFEHPYPPTKTIFIPDKECQRPDLLATSSDFLRLWRIADDHSRVELKSCLNSNKNSEFCGPLTSFDWNEAEPRRIGTSSTDTTCTIWDIEREAVDTQLIAHDKEVFDIAWGGVGVFASVSADGSVRVFDLRDKEHSTIIYESSEPDTPLVRLGWNKQDPRYMATIIMDSAKVVVLDIRFPALPVVELQRHQASVNAIAWAPHSSCHICTAGDDSQALIWDISSMGQHVEGGLDPILAYTAGAEIEQLQWSSSQPDWVAIAFSTKLQILRV”, the protein production result was “failed”.

As to “MGTTEKSGIKEIIIQGLTRAGKPFRPSDWVDRMCSTYASFGADRKLRYSPYLKPRVIEGVRCLAVDLKLKDTNPEGFNQLMHFATENQLNILDAEGNSIDAAQVTEI”, the protein production result is listed as “not failed”.

“MGVANLRVMHYVHKDKAFAYWSCTCVYAPESRYCSEEHKKMALAEREYELPHNFANVHLHTNMEDLVLPKIISYLRDPQLGIIEIPNLQYIDDVFNVTPTEQPDMFSTNLDEREEFNIWLFMMIS”: the protein production result is “failed”.

In the case of “MGVDMELKVEASLREARTLLAAKQYSQAANVAHSLFCTCHKFNLQIEKASVLLLLAEIHKKSGNAVLGLPYALASISFCQSFNLDLLKASATLTLAELWLGLGSNHTKRALDLLHGAFPMILGHGGLELRARAYIFEANCYLSDPSSSVSTDSDTVLDSLRQASDELQALEYHELAAEASYLMAMVYDKLGRLDEREEAASLFKKHIIALENPQDVEQNMA”, the protein production entry is on record as “failed”.

Take “MGVDNFSTTKKMFTWEVPGERVITLMTAGNLATTQALISLLEERSKTPSERSPSILERPTMFEVARLVGATLKEVIADTAGTGQVASSQFKASVIVGGQVKGGLPTLFLIYPEGNFIEVTEDSPFFQIGEAKYGKPILVRAYDPDLSFEDTIRLLMVSFDSTIKANLSVGLPLDLQVYANDSFAIKEQSRVEADDAYFQSISERWGDALRKALSDLPPYKSLLEHHHHHH”: the protein production entry was “failed”.

In the case of “MGVIVPGNSSPVPALSAGRSTVEGYDPKLHDPFFDGVSQQLADKGFITAAADDLITWARTGSLMWMTFGLACCAVEMMQASMPRYDLERYGFAPRASPRQSDVMIVAGTLTNKMAPALRKVYDQMPEPRYVISMGSCANGGGYYYYSYSVVRGCDRVVPVDIYVPGCPPTAEALVYGVLQLQKKIRRTGTIER”, the protein production entry was “failed”.

With “MGVLHALREEEGAARARFEEALTHDAGHYRARMNIGNLDLEAGRLPEAEAAYREVLKLAPEYDGAHHNLGVALRRQGKLYESVGSIRKAQRLGVSGARAAAKEDMQEQLRLNPHLRWIRAAIFIGVLLLLGVLLWLNRGRA”, the protein production result is “failed”.

The values above are taken from a protein production outcome set (Wang et al. 2014).
